# Data taken from paper PMC9509318 (Nature Communications, 2022).
# B1: 10D8 Fab fragment (Fab, V domains shown)
# VH: EVMLVESGGDLVKPGGSLKVSCAASGFTFSNYAMSWVRQTPEKRLEWVATISSGASYTHYPDSVKGRFTISRDNAKNTLYLQMSSLRSEDTAMYYCGRQVNRHDRALDAMDYWGQGTSVTVSP
# VL: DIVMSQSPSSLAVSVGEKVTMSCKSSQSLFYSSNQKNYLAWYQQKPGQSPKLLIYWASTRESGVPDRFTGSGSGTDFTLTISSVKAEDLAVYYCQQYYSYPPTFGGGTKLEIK
# notes: source: hybridoma cell line, purified using protein A/G, ficin cleaved to Fab
# B2: 10D8 monoclonal antibody (antibody, V domains shown)
# VH: B1 VH
# VL: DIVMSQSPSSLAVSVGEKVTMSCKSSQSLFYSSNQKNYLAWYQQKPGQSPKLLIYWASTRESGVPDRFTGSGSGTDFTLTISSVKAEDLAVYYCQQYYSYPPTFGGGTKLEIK
# notes: source: hybridoma cell line, purified using protein A/G
# B3: 32F3 monoclonal antibody (antibody, V domains shown)
# VH: DVKLVESGGGLVKLGGSLKLSCAASGFTFSSYYMSWVRQTPEKRLELVAAINNNGGSTYYPDTVKGRFTISRDNAKNTLNLQMNSLKSEDTALYYCTRQHYGNLYFFDYWGQGTTLTVSS
# VL: QIVLSQSPAILSASPGEKVTMTCRASSSVTYIHWYQQKPGSSPKPWIQATSSLASGVPARFSGSGSGTSYSLSISRVEAEDAATYYCQQWSSNPLTFGAGTKLELK
# notes: as for B2
# Legend:
# Conditions in all cases: both partners purified
# [1] = target: T1, Pfs48/45 full-length ectodomain (Plasmodium falciparum, UniProt Q8I6T1); test: negative stain electron microscopy
# [2] = target: Pfs48/45-D2 + 3 (central and C-terminal domains) (Plasmodium falciparum, UniProt Q8I6T1); test: crystal structure
# [3] = target: T1, Pfs48/45 full-length ectodomain; test: SPR
# [4] = target: Pfs48/45-D3 (C-terminal 6-cys domain of Pfs48/45) (Plasmodium falciparum 3D7 …, UniProt Q8I6T1); test: SPR
# Sequence of Pfs48/45-D3 (C-terminal 6-cys domain of Pfs48/45) (Q8I6T1 291-428): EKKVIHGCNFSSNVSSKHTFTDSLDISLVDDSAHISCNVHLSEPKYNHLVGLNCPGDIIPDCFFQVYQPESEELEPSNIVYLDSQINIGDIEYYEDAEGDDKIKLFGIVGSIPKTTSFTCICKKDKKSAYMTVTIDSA
# T1 sequence (Q8I6T1 27-427): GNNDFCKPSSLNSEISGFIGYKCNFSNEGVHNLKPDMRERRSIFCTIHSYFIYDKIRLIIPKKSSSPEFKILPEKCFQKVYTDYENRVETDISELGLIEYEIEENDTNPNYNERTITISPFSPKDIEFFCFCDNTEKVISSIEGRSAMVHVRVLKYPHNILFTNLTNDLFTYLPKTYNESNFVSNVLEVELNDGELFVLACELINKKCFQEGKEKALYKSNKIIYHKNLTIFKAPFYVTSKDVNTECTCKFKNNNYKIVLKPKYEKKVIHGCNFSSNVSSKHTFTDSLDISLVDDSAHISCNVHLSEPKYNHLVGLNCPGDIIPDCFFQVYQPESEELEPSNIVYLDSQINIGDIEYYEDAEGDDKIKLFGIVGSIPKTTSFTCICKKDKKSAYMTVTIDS
# Sequence of Pfs48/45-D2 + 3 (central and C-terminal domains) (Q8I6T1 159-428): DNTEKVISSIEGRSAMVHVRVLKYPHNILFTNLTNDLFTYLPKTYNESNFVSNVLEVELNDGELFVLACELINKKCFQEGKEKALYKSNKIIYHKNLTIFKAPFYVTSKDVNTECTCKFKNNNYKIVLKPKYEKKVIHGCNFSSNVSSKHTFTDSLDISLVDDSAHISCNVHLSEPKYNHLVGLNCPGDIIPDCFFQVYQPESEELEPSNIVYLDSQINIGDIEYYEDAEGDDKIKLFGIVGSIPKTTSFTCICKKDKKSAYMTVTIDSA
binder,measurement,setting,value
B1,binding result,[1],binds
same,binding result,[2],binds
B2,binding result,[3],binds
B3,Kd,[4],5.2 nM
